Patent publication US20250320281A1

Legend:
Experiment in all cases: cell-based or functional assay
[1] = molecular target: HIV-1 93UG077 Env (pseudovirus, clade A) (HIV-1)
[2] = molecular target: HIV-1 Env of isolate 92UG005 (clade D), on pseudovirus (HIV-1)
[3] = molecular target: HIV-1 Env of isolate APV_6 (subtype B pseudovirus) (HIV-1)
[4] = molecular target: HIV-1 Env of isolate MGRM-AG-002 (HIV-1)
[5] = molecular target: HIV-1 Env of isolate MGRM-AG-005 (clade AG), on pseudovirus (HIV-1)
[6] = molecular target: HIV-1 Env of isolate MGRM-AG-009 (HIV-1)
[7] = molecular target: HIV-1 Env of isolate MGRM-D-011 (pseudovirus) (HIV-1)
[8] = molecular target: HIV-1 Env of isolate MGRM-D-019 (pseudovirus) (HIV-1)
[9] = molecular target: HIV-1 Env of isolate MGRM-D-028 (pseudovirus) (HIV-1)
[10] = molecular target: HIV-1 Env of isolate MGRM-F1-004 (pseudovirus) (HIV-1)
[11] = molecular target: HIV-1 Env of isolate MGRM-F1-012 (pseudovirus) (HIV-1)
[12] = molecular target: HIV-1 Env of isolate PVO.4 (subtype B pseudovirus) (HIV-1)
[13] = molecular target: HIV-1 NL43 Env (pseudovirus, clade B) (HIV-1)
[14] = molecular target: HIV-1 Env of isolate 92WR009 (HIV-1)
[15] = molecular target: HIV-1 Env of isolate 92WR020 (HIV-1)
[16] = molecular target: HIV-1 Env of isolate 93WR029 (HIV-1)
[17] = molecular target: HIV-1 Env of isolate APV-17 (HIV-1)
[18] = molecular target: HIV-1 Env of isolate APV-6 (HIV-1)
[19] = molecular target: HIV-1 Env of isolate CAAN.A2 (subtype B) (HIV-1)
[20] = molecular target: HIV-1 Env of isolate MG RM-D-004 (HIV-1)
[21] = molecular target: HIV-1 Env of isolate MG RM-D-012 (HIV-1)
[22] = molecular target: HIV-1 Env of isolate MGRM-A-012 (subtype A) (HIV-1)
[23] = molecular target: HIV-1 Env of isolate MGRM-C-002 (subtype C) (HIV-1)
[24] = molecular target: HIV-1 Env of isolate MGRM-Chronic-B-017 (subtype B) (HIV-1)
[25] = molecular target: HIV-1 Env of isolate NL43 (subtype B) (HIV-1)
[26] = molecular target: HIV-1 Env of isolate PVO.4 (subtype B) (HIV-1)
[27] = molecular target: HIV-1 Env of isolate THR0.18 (subtype B) (HIV-1)
[28] = molecular target: HIV-1 Env of isolate TRJ04551.58 (subtype B) (HIV-1)
[29] = molecular target: HIV-1 Env of isolate TRO.11 (subtype B) (HIV-1)
[30] = molecular target: HIV-1 envelope glycoprotein (Env) of isolate MGRM-C-010 (HIV-1)
[31] = molecular target: HIV-1 envelope glycoprotein (Env) of isolate MGRM-C-019 (HIV-1)
[32] = molecular target: HIV-1 envelope glycoprotein (Env) of isolate MGRM-C-024 (HIV-1)
[33] = molecular target: HIV-1 Env of isolate MGRM-G-025 (HIV-1)

Chain of 5345_I01 (PGT-137) (antibody) (VH): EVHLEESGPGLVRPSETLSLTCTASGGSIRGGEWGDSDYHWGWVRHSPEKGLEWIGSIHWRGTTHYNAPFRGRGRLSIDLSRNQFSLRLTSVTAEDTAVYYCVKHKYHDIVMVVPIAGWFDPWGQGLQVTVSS
Chain of 5345_I01 (PGT-137) (antibody) (VL): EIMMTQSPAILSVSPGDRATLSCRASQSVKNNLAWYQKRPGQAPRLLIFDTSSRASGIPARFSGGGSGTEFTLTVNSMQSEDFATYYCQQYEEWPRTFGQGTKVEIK
Chain of 4993_K13 (PGT-141) (antibody) (VH): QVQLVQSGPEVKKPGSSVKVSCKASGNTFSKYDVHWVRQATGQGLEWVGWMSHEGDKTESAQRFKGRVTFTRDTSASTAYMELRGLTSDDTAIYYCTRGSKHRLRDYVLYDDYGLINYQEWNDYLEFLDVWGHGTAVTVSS
Chain of 4993_K13 (PGT-141) (antibody) (VL): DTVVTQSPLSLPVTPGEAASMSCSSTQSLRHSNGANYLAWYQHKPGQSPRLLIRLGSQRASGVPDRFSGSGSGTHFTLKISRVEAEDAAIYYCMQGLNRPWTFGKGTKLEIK

Row | Substance | IC50 neutralization [1] [µg/mL] | IC50, pseudovirus neutralization [2] [µg/mL] | IC50 (µg/mL), pseudovirus neutralization [3] [µg/mL] | IC50 [4] [µg/mL] | IC50, pseudovirus neutralization [5] [µg/mL] | IC50 [6] [µg/mL] | IC50, pseudovirus neutralization [7] [µg/mL] | IC50, pseudovirus neutralization [8] [µg/mL] | IC50, pseudovirus neutralization [9] [µg/mL] | IC50, pseudovirus neutralization [10] [µg/mL] | IC50, pseudovirus neutralization [11] [µg/mL] | IC50 (µg/mL), pseudovirus neutralization [12] [µg/mL] | IC50 neutralization [13] [µg/mL] | IC50 [14] [µg/mL] | IC50 [15] [µg/mL] | IC50 [16] [µg/mL] | neutralization IC50 [17] [µg/mL] | neutralization IC50 [18] [µg/mL] | IC50 neutralization [19] [µg/mL] | IC50 (µg/mL), pseudovirus neutralization [20] [µg/mL] | also measured
1 | 5123_A06 (PGT-125) (antibody) | 0.0262 | > 10 | 0.021 | > 50 | > 10 | 0.026 | 0.008 | 0.049 | > 50 | > 50 | > 50 | 0.042 | > 10 |  |  |  |  |  |  |  | 
2 | 5147_N06 (PGT-130) (antibody) | > 10 | 0.474 |  |  | 0.947 |  |  |  |  |  |  |  | > 10 | 1.27 | 0.039 | 34.3 | 10.7 | > 50 | > 50 | 1.21 | IC50 (µg/mL), pseudovirus neutralization [21]: > 50 µg/mL; IC50 (µg/mL), pseudovirus neutralization [22]: > 50 µg/mL; IC50 neutralization [23]: > 50 µg/mL; IC50 neutralization [24]: > 50 µg/mL; IC50 neutralization [25]: > 50 µg/mL; IC50 neutralization [26]: 5.17 µg/mL; IC50 neutralization [27]: > 50 µg/mL; IC50 neutralization [28]: 0.023 µg/mL; IC50 neutralization [29]: 0.257 µg/mL; IC50 (µg/mL), pseudovirus neutralization [30]: > 50 µg/mL; IC50 (µg/mL), pseudovirus neutralization [31]: 0.01 µg/mL; IC50 (µg/mL), pseudovirus neutralization [32]: > 50 µg/mL
3 | 5136_H01 (PGT-131) (antibody) |  |  |  |  |  |  |  |  |  |  |  |  |  | 3.12 | 0.168 | > 50 | > 50 | > 50 | > 50 | 2.01 | IC50 (µg/mL), pseudovirus neutralization [21]: > 50 µg/mL; IC50 (µg/mL), pseudovirus neutralization [22]: > 50 µg/mL; IC50 neutralization [23]: > 50 µg/mL; IC50 neutralization [24]: > 50 µg/mL; IC50 neutralization [25]: > 50 µg/mL; IC50 neutralization [26]: > 50 µg/mL; IC50 neutralization [27]: > 50 µg/mL; IC50 neutralization [28]: 0.088 µg/mL; IC50 neutralization [29]: 1.91 µg/mL; IC50 (µg/mL), pseudovirus neutralization [30]: > 50 µg/mL; IC50 (µg/mL), pseudovirus neutralization [31]: 0.021 µg/mL; IC50 (µg/mL), pseudovirus neutralization [32]: > 50 µg/mL
4 | 4993_K13 (PGT-141) (antibody) |  |  |  |  |  |  |  |  |  |  |  |  |  |  |  |  |  |  |  |  | IC50 (µg/mL), pseudovirus neutralization [33]: > 50 µg/mL
5 | 4838_L06 (PGT-121) (antibody) |  | > 10 | 0.018 | > 50 |  | 0.08 | 0.018 | > 50 | 0.009 | 1.67 | 1.91 | 0.137 | > 10 |  |  |  |  |  |  |  | 
6 | 5141_B17 (PGT-126) (antibody) | 0.0256 | 0.0181 | 0.007 | > 50 | 1.35 | 0.03 | 0.009 | > 50 | > 50 | 0.063 | 0.3 | 0.017 | > 10 |  |  |  |  |  |  |  | 
7 | 5145_B14 (PGT-127) (antibody) |  |  | 0.04 | > 50 |  | 0.059 | 0.015 | > 50 | > 50 | 0.068 | > 50 | 0.164 |  |  |  |  |  |  |  |  | 
8 | 5345_I01 (PGT-137) (antibody) |  |  |  |  |  |  |  |  |  |  |  |  |  | > 50 | 0.005 | > 50 | > 50 | > 50 | > 50 | > 50 | IC50 (µg/mL), pseudovirus neutralization [21]: > 50 µg/mL; IC50 (µg/mL), pseudovirus neutralization [22]: > 50 µg/mL; IC50 neutralization [23]: 8.03 µg/mL; IC50 neutralization [24]: > 50 µg/mL; IC50 neutralization [25]: 17.4 µg/mL; IC50 neutralization [26]: > 50 µg/mL; IC50 neutralization [27]: > 50 µg/mL; IC50 neutralization [28]: > 50 µg/mL; IC50 neutralization [29]: 9.35 µg/mL; IC50 (µg/mL), pseudovirus neutralization [30]: > 50 µg/mL; IC50 (µg/mL), pseudovirus neutralization [31]: > 50 µg/mL; IC50 (µg/mL), pseudovirus neutralization [32]: > 50 µg/mL
